Assay results taken from the supplement of paper PMC5998384.

Assays:
HeLa Kyoto [1] = test: solubility in G1/S (NP-40 vs SDS abundance) (log2 ratio); higher = more soluble; details: cell cycle stage: G1/S
HeLa Kyoto [2] = test: melting temperature (median over replicates), in situ; higher = more thermally stable
HeLa Kyoto [3] = test: solubility change mitosis vs G1/S (difference of NP-40 vs SDS log2 ratios) (log2 ratio difference); higher = more soluble in mitosis
HeLa Kyoto [4] = test: thermal stability score vs G1/S (z-score of summed log2 fold changes over temperatures); higher = more thermally stable than in G1/S
[5] = cell cycle stage: early G1 (4.5 h after nocodazole release)
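Throughout, for melting temperature (median over replicates), in situ: HeLa Kyoto cells synchronized by double thymidine or nocodazole block, proteins quantified by TMT10plex mass spectrometry, three independent biological replicates.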
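Throughout, for solubility change mitosis vs G1/S (difference of NP-40 vs SDS log2 ratios): synchronized HeLa Kyoto cells (double thymidine block for G1/S, nocodazole release for mitosis), protein amounts in NP-40 versus SDS lysates quantified by mass spectrometry, three biological replicates.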
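Throughout, for solubility in G1/S (NP-40 vs SDS abundance): HeLa Kyoto cells arrested at G1/S by double thymidine block, proteins quantified by TMT10plex mass spectrometry in mild NP-40 versus SDS extracts, three biological replicates.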
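Throughout, for thermal stability score vs G1/S (z-score of summed log2 fold changes over temperatures): synchronized HeLa Kyoto cells, proteins quantified by TMT10plex mass spectrometry, three biological replicates, mitosis taken 0.5 h after nocodazole release, G1/S directly after double thymidine block.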

| Sequence | solubility in G1/S (log2) (HeLa Kyoto [1]) | melting temperature (HeLa Kyoto [2]; cell cycle stage: G1/S) [°C] | melting temperature (HeLa Kyoto [2]; cell cycle stage: mitosis) [°C] | solubility change mitosis (log2) (HeLa Kyoto [3]) | thermal stability score (HeLa Kyoto [4]; [5]) | thermal stability score (HeLa Kyoto [4]; cell cycle stage: mitosis) |
| --- | --- | --- | --- | --- | --- | --- |
| MAAAAGAAAAAAAEGEAPAEMGALLLEKETRGATERVHGSLGDTPRSEETLPKATPDSLEPAGPSSPASVTVTVGDEGADTPVGATPLIGDESENLEGDGDLRGGRILLGHATKSFPSSPSKGGSCPSRAKMSMTGAGKSPPSVQSLAMRLLSMPGAQGAAAAGSEPPPATTSPEGQPKVHRARKTMSKPGNGQPPVPEKRPPEIQHFRMSDDVHSLGKVTSDLAKRRKLNSGGGLSEELGSARRSGEVTLTKGDPGSLEEWETVVGDDFSLYYDSYSVDERVDSDSKSEVEALTEQLSEEEEEEEEEEEEEEEEEEEEEEEEDEESGNQSDRSGSSGRRKAKKKWRKDSPWVKPSRKRRKREPPRAKEPRGVNGVGSSGPSEYMEVPLGSLELPSEGTLSPNHAGVSNDTSSLETERGFEELPLCSCRMEAPKIDRISERAGHKCMATESVDGELSGCNAAILKRETMRPSSRVALMVLCETHRARMVKHHCCPGCGYFCTAGTFLECHPDFRVAHRFHKACVSQLNGMVFCPHCGEDASEAQEVTIPRGDGVTPPAGTAAPAPPPLSQDVPGRADTSQPSARMRGHGEPRRPPCDPLADTIDSSGPSLTLPNGGCLSAVGLPLGPGREALEKALVIQESERRKKLRFHPRQLYLSVKQGELQKVILMLLDNLDPNFQSDQQSKRTPLHAAAQKGSVEICHVLLQAGANINAVDKQQRTPLMEAVVNNHLEVARYMVQRGGCVYSKEEDGSTCLHHAAKIGNLEMVSLLLSTGQVDVNAQDSGGWTPIIWAAEHKHIEVIRMLLTRGADVTLTDNEENICLHWASFTGSAAIAEVLLNARCDLHAVNYHGDTPLHIAARESYHDCVLLFLSRGANPELRNKEGDTAWDLTPERSDVWFALQLNRKLRLGVGNRAIRTEKIICRDVARGYENVPIPCVNGVDGEPCPEDYKYISENCETSTMNIDRNITHLQHCTCVDDCSSSNCLCGQLSIRCWYDKDGRLLQEFNKIEPPLIFECNQACSCWRNCKNRVVQSGIKVRLQLYRTAKMGWGVRALQTIPQGTFICEYVGELISDAEADVREDDSYLFDLDNKDGEVYCIDARYYGNISRFINHLCDPNIIPVRVFMLHQDLRFPRIAFFSSRDIRTGEELGFDYGDRFWDIKSKYFTCQCGSEKCKHSAEAIALEQSRLARLDPHPELLPELGSLPPVNT [EHMT2] | -0.563 | 50.1 | 49.9 | 0.189 | 1.11 | 1.87 |
| MAAAAGDADDEPRSGHSSSEGECAVAPEPLTDAEGLFSFADFGSALGGGGAGLSGRASGGAQSPLRYLHVLWQQDAEPRDELRCKIPAGRLRRAARPHRRLGPTGKEVHALKRLRDSANANDVETVQQLLEDGADPCAADDKGRTALHFASCNGNDQIVQLLLDHGADPNQRDGLGNTPLHLAACTNHVPVITTLLRGGARVDALDRAGRTPLHLAKSKLNILQEGHAQCLEAVRLEVKQIIHMLREYLERLGQHEQRERLDDLCTRLQMTSTKEQVDEVTDLLASFTSLSLQMQSMEKR [ANKRD54] | 0.0925 | 51 |  | -0.169 | 0.324 | 3.1 |
| MAAAAGSCARVAAWGGKLRRGLAVSRQAVRSPGPLAAAVAGAALAGAGAAWHHSRVSVAARDGSFTVSAQKNVEHGIIYIGKPSLRKQRFMQFSSLEHEGEYYMTPRDFLFSVMFEQMERKTSVKKLTKKDIEDTLSGIQTAGCGSTFFRDLGDKGLISYTEYLFLLTILTKPHSGFHVAFKMLDTDGNEMIEKREFFKLQKIISKQDDLMTVKTNETGYQEAIVKEPEINTTLQMRFFGKRGQRKLHYKEFRRFMENLQTEIQEMEFLQFSKGLSFMRKEDFAEWLLFFTNTENKDIYWKNVREKLSAGESISLDEFKSFCHFTTHLEDFAIAMQMFSLAHRPVRLAEFKRAVKVATGQELSNNILDTVFKIFDLDGDECLSHEEFLGVLKNRMHRGLWVPQHQSIQEYWKCVKKESIKGVKEVWKQAGKGLF [MICU2] | -0.297 | 52.1 | 52.1 | -0.111 | 0.279 | 0.383 |
| MAAAALGQIWARKLLSVPWLLCGPRRYASSSFKAADLQLEMTQKPHKKPGPGEPLVFGKTFTDHMLMVEWNDKGWGQPRIQPFQNLTLHPASSSLHYSLQLFEGMKAFKGKDQQVRLFRPWLNMDRMLRSAMRLCLPSFDKLELLECIRRLIEVDKDWVPDAAGTSLYVRPVLIGNEPSLGVSQPTRALLFVILCPVGAYFPGGSVTPVSLLADPAFIRAWVGGVGNYKLGGNYGPTVLVQQEALKRGCEQVLWLYGPDHQLTEVGTMNIFVYWTHEDGVLELVTPPLNGVILPGVVRQSLLDMAQTWGEFRVVERTITMKQLLRALEEGRVREVFGSGTACQVCPVHRILYKDRNLHIPTMENGPELILRFQKELKEIQYGIRAHEWMFPV [BCAT2] | -0.077 | 55.4 | 55.1 | -0.156 | -0.771 | -0.0554 |
| MAAAALRRFWSRRRAEAGDAVVAKPGVWARLGSWARALLRDYAEACRDASAEARARPGRAAVYVGLLGGAAACFTLAPSEGAFEEALLEASGTLLLLAPATRNRESEAFVQRLLWLRGRGRLRYVNLGLCSLVYEAPFDAQASLYQARCRYLQPRWTDFPGRVLDVGFVGRWWVLGAWMRDCDINDDEFLHLPAHLRVVGPQQLHSETNERLFDEKYKPVVLTDDQVDQALWEEQVLQKEKKDRLALSQAHSLVQAEAPR [C19ORF52] | -0.131 | 53.5 | 53.8 | -0.13 | 0.683 | 0.243 |
| MAAAAQLSLTQLSSGNPVYEKYYRQVDTGNTGRVLASDAAAFLKKSGLPDLILGKIWDLADTDGKGILNKQEFFVALRLVACAQNGLEVSLSSLNLAVPPPRFHDTSSPLLISGTSAAELPWAVKPEDKAKYDAIFDSLSPVNGFLSGDKVKPVLLNSKLPVDILGRVWELSDIDHDGMLDRDEFAVAMFLVYCALEKEPVPMSLPPALVPPSKRKTWVVSPAEKAKYDEIFLKTDKDMDGFVSGLEVREIFLKTGLPSTLLAHIWSLCDTKDCGKLSKDQFALAFHLISQKLIKGIDPPHVLTPEMIPPSDRASLQKNIIGSSPVADFSAIKELDTLNNEIVDLQREKNNVEQDLKEKEDTIKQRTSEVQDLQDEVQRENTNLQKLQAQKQQVQELLDELDEQKAQLEEQLKEVRKKCAEEAQLISSLKAELTSQESQISTYEEELAKAREELSRLQQETAELEESVESGKAQLEPLQQHLQDSQQEISSMQMKLMEMKDLENHNSQLNWCSSPHSILVNGATDYCSLSTSSSETANLNEHVEGQSNLESEPIHQESPARSSPELLPSGVTDENEVTTAVTEKVCSELDNNRHSKEEDPFNVDSSSLTGPVADTNLDFFQSDPFVGSDPFKDDPFGKIDPFGGDPFKGSDPFASDCFFRQSTDPFATSSTDPFSAANNSSITSVETLKHNDPFAPGGTVVAASDSATDPFASVFGNESFGGGFADFSTLSKVNNEDPFRSATSSSVSNVVITKNVFEETSVKSEDEPPALPPKIGTPTRPCPLPPGKRSINKLDSPDPFKLNDPFQPFPGNDSPKEKDPEIFCDPFTSATTTTNKEADPSNFANFSAYPSEEDMIEWAKRESEREEEQRLARLNQQEQEDLELAIALSKSEISEA [EPS15] | 0.2 | 51 | 51.5 | -0.117 | 0.399 | 1.19 |
| MAAAAVSESWPELELAERERRRELLLTGPGLEERVRAAGGQLPPRLFTLPLLHYLEVSGCGSLRAPGPGLAQGLPQLHSLVLRRNALGPGLSPELGPLPALRVLDLSGNALEALPPGQGLGPAEPPGLPQLQSLNLSGNRLRELPADLARCAPRLQSLNLTGNCLDSFPAELFRPGALPLLSELAAADNCLRELSPDIAHLASLKTLDLSNNQLSEIPAELADCPKLKEINFRGNKLRDKRLEKMVSGCQTRSILEYLRVGGRGGGKGKGRAEGSEKEESRRKRRERKQRREGGDGEEQDVGDAGRLLLRVLHVSENPVPLTVRVSPEVRDVRPYIVGAVVRGMDLQPGNALKRFLTSQTKLHEDLCEKRTAATLATHELRAVKGPLLYCARPPQDLKIVPLGRKEAKAKELVRQLQLEAEEQRKQKKRQSVSGLHRYLHLLDGNENYPCLVDADGDVISFPPITNSEKTKVKKTTSDLFLEVTSATSLQICKDVMDALILKMAEMKKYTLENKEEGSLSDTEADAVSGQLPDPTTNPSAGKDGPSLLVVEQVRVVDLEGSLKVVYPSKADLATAPPHVTVVR [LRRC47] | 0.238 | 53 | 52.2 | 0.0172 | -0.334 | -1.47 |
| MAAAAWLQVLPVILLLLGAHPSPLSFFSAGPATVAAADRSKWHIPIPSGKNYFSFGKILFRNTTIFLKFDGEPCDLSLNITWYLKSADCYNEIYNFKAEEVELYLEKLKEKRGLSGKYQTSSKLFQNCSELFKTQTFSGDFMHRLPLLGEKQEAKENGTNLTFIGDKTAMHEPLQTWQDAPYIFIVHIGISSSKESSKENSLSNLFTMTVEVKGPYEYLTLEDYPLMIFFMVMCIVYVLFGVLWLAWSACYWRDLLRIQFWIGAVIFLGMLEKAVFYAEFQNIRYKGESVQGALILAELLSAVKRSLARTLVIIVSLGYGIVKPRLGVTLHKVVVAGALYLLFSGMEGVLRVTGAQTDLASLAFIPLAFLDTALCWWIFISLTQTMKLLKLRRNIVKLSLYRHFTNTLILAVAASIVFIIWTTMKFRIVTCQSDWRELWVDDAIWRLLFSMILFVIMVLWRPSANNQRFAFSPLSEEEEEDEQKEPMLKESFEGMKMRSTKQEPNGNSKVNKAQEDDLKWVEENVPSSVTDVALPALLDSDEERMITHFERSKME [TMEM87A] | -0.0314 | 59 | 60.5 | -0.117 | -4.37 | -3.56 |
| MAAAEEEPKPKKLKVEAPQALRENILFGMGNPLLDISAVVDKDFLDKYSLKPNDQILAEDKHKELFDELVKKFKVEYHAGGSTQNSIKVAQWMIQQPHKAATFFGCIGIDKFGEILKRKAAEAHVDAHYYEQNEQPTGTCAACITGDNRSLIANLAAANCYKKEKHLDLEKNWMLVEKARVCYIAGFFLTVSPESVLKVAHHASENNRIFTLNLSAPFISQFYKESLMKVMPYVDILFGNETEAATFAREQGFETKDIKEIAKKTQALPKMNSKRQRIVIFTQGRDDTIMATESEVTAFAVLDQDQKEIIDTNGAGDAFVGGFLSQLVSDKPLTECIRAGHYAASIIIRRTGCTFPEKPDFH [ADK] | 0.242 | 56.3 | 56.9 | -0.112 | 1.79 | 2.86 |
| MAAAFEASGALAAVATAMPAEHVAVQVPAPEPTPGPVRILRTAQDLSSPRTRTGDVLLAEPADFESLLLSRPVLEGLRAAGFERPSPVQLKAIPLGRCGLDLIVQAKSGTGKTCVFSTIALDSLVLENLSTQILILAPTREIAVQIHSVITAIGIKMEGLECHVFIGGTPLSQDKTRLKKCHIAVGSPGRIKQLIELDYLNPGSIRLFILDEADKLLEEGSFQEQINWIYSSLPASKQMLAVSATYPEFLANALTKYMRDPTFVRLNSSDPSLIGLKQYYKVVNSYPLAHKVFEEKTQHLQELFSRIPFNQALVFSNLHSRAQHLADILSSKGFPAECISGNMNQNQRLDAMAKLKHFHCRVLISTDLTSRGIDAEKVNLVVNLDVPLDWETYMHRIGRAGRFGTLGLTVTYCCRGEEENMMMRIAQKCNINLLPLPDPIPSGLMEECVDWDVEVKAAVHTYGIASVPNQPLKKQIQKIERTLQIQKAHGDHMASSRNNSVSGLSVKSKNNTKQKLPVKSHSECGIIEKATSPKELGCDRQSEEQMKNSVQTPVENSTNSQHQVKEALPVSLPQIPCLSSFKIHQPYTLTFAELVEDYEHYIKEGLEKPVEIIRHYTGPGDQTVNPQNGFVRNKVIEQRVPVLASSSQSGDSESDSDSYSSRTSSQSKGNKSYLEGSSDNQLKDSESTPVDDRISLEQPPNGSDTPNPEKYQESPGIQMKTRLKEGASQRAKQSRRNLPRRSSFRLQTEAQEDDWYDCHREIRLSFSDTYQDYEEYWRAYYRAWQEYYAAASHSYYWNAQRHPSWMAAYHMNTIYLQEMMHSNQ [DDX20] | -0.119 | 47.5 | 48.8 | 0.084 | -0.14 | 3.36 |
